Results on 5 substances are retold here after paper PMC4791469.

Experiment [1] has as its target Chlamydomonas [FeFe]-hydrogenase HYDA1 (CrHYDA1) (Chlamydomonas reinhardtii).
In experiment [2] the target is Chlamydomonas ferredoxin:NAD(P) reductase I (CrFNR1) (Chlamydomonas reinhardtii) (UniProt P53991).
Chain of UniProt P53991 (P53991 36-354): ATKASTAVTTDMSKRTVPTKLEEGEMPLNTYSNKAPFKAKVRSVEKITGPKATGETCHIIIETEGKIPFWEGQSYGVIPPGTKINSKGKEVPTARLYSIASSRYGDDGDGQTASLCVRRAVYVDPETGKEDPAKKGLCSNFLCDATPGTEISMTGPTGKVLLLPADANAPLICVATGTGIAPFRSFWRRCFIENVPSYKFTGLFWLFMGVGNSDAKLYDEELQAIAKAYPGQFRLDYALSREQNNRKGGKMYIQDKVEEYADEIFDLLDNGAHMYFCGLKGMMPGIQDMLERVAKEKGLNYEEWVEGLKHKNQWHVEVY

Substance CrFDX2 (M62F) (natural protein) showed a hydrogen photo-production rate (thylakoids, 100 nM HYDA1, light, gas chromatography) (µmol H2/µg Chl/h) in experiment [1] of 150. For the same substance, the Km for the ferredoxin in FNR1-catalysed NADPH photo-production (thylakoids, 0.5 μM FNR1, varied FDX, Lineweaver-Burk) in experiment [2] was found to be 0.69 µM.

As for CrFDX2 (∇95Y) (natural protein), the hydrogen photo-production rate (thylakoids, 100 nM HYDA1, light, gas chromatography) in experiment [1] was determined as 134. In addition, the Km for the ferredoxin in FNR1-catalysed NADPH photo-production (thylakoids, 0.5 μM FNR1, varied FDX, Lineweaver-Burk) in experiment [2] stood at 0.38 µM.

The substance “Chlamydomonas reinhardtii ferredoxin 2 (CrFDX2), mature, wild type, tag cleaved (natural protein)” displayed a hydrogen photo-production rate (thylakoids, 100 nM HYDA1, light, gas chromatography) in experiment [1] of 86. In addition, in experiment [2], the Km for the ferredoxin in FNR1-catalysed NADPH photo-production (thylakoids, 0.5 μM FNR1, varied FDX, Lineweaver-Burk) is 0.18 µM and the catalytic efficiency kcat/Km of FNR1-catalysed NADPH photo-production with this ferredoxin was found to be 3.5e+09 M⁻¹ s⁻¹.

As for “Chlamydomonas reinhardtii ferredoxin 1 (CrFDX1), mature, tag cleaved (natural protein)”, in experiment [1], the hydrogen photo-production rate (thylakoids, 100 nM HYDA1, light, gas chromatography) is 489. Further, in experiment [2], the Km for the ferredoxin in FNR1-catalysed NADPH photo-production (thylakoids, 0.5 μM FNR1, varied FDX, Lineweaver-Burk) came to 0.4 µM and the catalytic efficiency kcat/Km of FNR1-catalysed NADPH photo-production with this ferredoxin amounted to 1.7e+09 M⁻¹ s⁻¹.

Take CrFDX2 (M62F/∇95Y) (natural protein): the hydrogen photo-production rate (thylakoids, 100 nM HYDA1, light, gas chromatography) in experiment [1] came out at 264. Besides, in experiment [2], the Km for the ferredoxin in FNR1-catalysed NADPH photo-production (thylakoids, 0.5 μM FNR1, varied FDX, Lineweaver-Burk) is 3.44 µM.
